Experimental data published in publication PMC6089211, “Expression and purification of human diacylglycerol kinase α from baculovirus-infected insect cells for structural studies” (PeerJ, 2018).

System: T1, Nc1ncnc2c1ncn2[C@@H]1O[C@H](COP(=O)(O)OP(=O)(O)OP(=O)(O)O)[C@@H](O)[C@H]1O
T1 construct: full-length DGKα (aa 1–735), N-terminal His×6 tag, Sf9-expressed
Test: Michaelis–Menten kinetics, mixed micelle ADP-Glo assay (Km)
Assay type: biochemical, Homo sapiens
Conditions: Mg2+, Ca2+ substrate (ATP and DG) binding sites locate in the CD

diacylglycerol kinase α (DGKα) (Homo sapiens), sequence (chain, as listed by the source): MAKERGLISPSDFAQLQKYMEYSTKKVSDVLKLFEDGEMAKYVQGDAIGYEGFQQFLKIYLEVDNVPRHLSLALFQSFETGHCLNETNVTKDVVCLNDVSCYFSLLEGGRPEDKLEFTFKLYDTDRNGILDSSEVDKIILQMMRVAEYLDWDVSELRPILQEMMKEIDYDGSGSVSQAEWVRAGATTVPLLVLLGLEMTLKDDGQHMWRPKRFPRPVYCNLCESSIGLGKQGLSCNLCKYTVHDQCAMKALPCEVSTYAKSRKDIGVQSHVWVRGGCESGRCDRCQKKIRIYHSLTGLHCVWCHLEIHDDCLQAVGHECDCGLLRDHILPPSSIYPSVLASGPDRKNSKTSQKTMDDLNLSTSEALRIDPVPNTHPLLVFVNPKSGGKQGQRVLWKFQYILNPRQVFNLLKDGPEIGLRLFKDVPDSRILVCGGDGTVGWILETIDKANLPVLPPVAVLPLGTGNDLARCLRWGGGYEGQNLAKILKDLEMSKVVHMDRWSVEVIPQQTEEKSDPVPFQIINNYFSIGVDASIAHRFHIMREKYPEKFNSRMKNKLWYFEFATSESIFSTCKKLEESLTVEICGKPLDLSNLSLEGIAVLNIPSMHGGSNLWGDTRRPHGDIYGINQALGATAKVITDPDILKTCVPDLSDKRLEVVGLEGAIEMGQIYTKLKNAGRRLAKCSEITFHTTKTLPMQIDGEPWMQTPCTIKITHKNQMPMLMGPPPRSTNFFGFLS

diacylglycerol kinase α (DGKα) (Homo sapiens)
Km: 240 ± 30 µM
Vmax: 2.66 ± 0.15 nmol/min/µg
